US20250283037A1 (JUNO THERAPEUTICS, published 2025)

Experiments:
[1] = target: T1, CD4 on the surface of human T cells (human, UniProt P01730 26-458); experiment: affinity column selection of cells from apheresis by the CD4 marker
T1 construct: whole, on cells; also called selection marker CD4

[2] = target: T2, Strep-tactin M2 (streptavidin mutein) immobilised on the chromatography resin (Streptomyces avidinii, UniProt P22629 38-163); experiment: loading of the tagged Fab on Strep-tactin Sephadex G50, 20 min at 4 C
T2 construct: also called immobilized Strep-tactin; STREP-TACTIN-coated resin

B1: anti-CD4 Fab fragment m13B8.2 with Twin Strep-Tag (Fab, V domains shown)
VH: QVQLKQSGPGLVQPSQSLSITCTVSGFSLTTFGVHWVRQSPGKGLEWLGVIWASGITDYNVPFMSRLSITKDNSKSQVFFKLNSLQPDDTAIYYCAKNDPGTGFAYWGQGTLVTVSA
VL: DIQMTQSPASLSASVGETVTFTCRASEMIYSYLAWYQQKQGKSPQLLVHDAKTLAEGVPSRFSGGGSGTQFSLKINTLQPEDFGTYYCQAHYGNPPTFGGGTKLEIKR
B1: binds [1]; binds [2].
